Assays:
[1] = biological target: 33-mer gluten specific peptide (wheat); experiment: indirect ELISA on coated 33-Mer, duplicate 1
[2] = biological target: wheat proteins (wheat prolamins) (wheat); experiment: indirect ELISA on coated Wheat, duplicate 1
[3] = biological target: oat proteins (oat); experiment: indirect ELISA on coated Oat, duplicate 2
[4] = biological target: barley proteins (barley prolamins) (barley); experiment: indirect ELISA on coated Barley, duplicate 1
[5] = biological target: 33-mer gluten specific peptide (wheat); experiment: indirect ELISA on coated 33-Mer, duplicate 2
[6] = biological target: PWG-gliadin (wheat); experiment: SPR, Biacore T200; Glutenin amine-coupled to the chip, antibody as analyte 20-320 nM; 1:1 binding fit; Chi2 1.1 RU2, U-value 5
[7] = biological target: rye proteins (rye prolamins) (rye); experiment: indirect ELISA on coated Rye, duplicate 2
[8] = biological target: oat proteins (oat); experiment: indirect ELISA on coated Oat, duplicate 1
[9] = biological target: wheat proteins (wheat prolamins) (wheat); experiment: indirect ELISA on coated Wheat, duplicate 2
[10] = biological target: barley proteins (barley prolamins) (barley); experiment: indirect ELISA on coated Barley, duplicate 2
[11] = biological target: rye proteins (rye prolamins) (rye); experiment: indirect ELISA on coated Rye, duplicate 1

33-mer gluten specific peptide (wheat), sequence (peptide, as listed by the source): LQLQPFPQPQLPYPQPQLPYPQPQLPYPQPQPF

ELISA absorbance at 0 ng/ml antibody (blank) [1]: 0.04
ELISA absorbance at 0.8 ng/ml antibody [1]: 0.039
ELISA absorbance at 4 ng/ml antibody [1]: 0.048
ELISA absorbance at 20 ng/ml antibody [1]: 0.067
ELISA absorbance at 0 ng/ml antibody (blank) [2]: 0.039
ELISA absorbance at 0.8 ng/ml antibody [2]: 0.133
ELISA absorbance at 4 ng/ml antibody [2]: 0.534
ELISA absorbance at 20 ng/ml antibody [2]: 1.5
ELISA absorbance at 0 ng/ml antibody (blank) [3]: 0.044
ELISA absorbance at 0.8 ng/ml antibody [3]: 0.055
ELISA absorbance at 4 ng/ml antibody [3]: 0.043
ELISA absorbance at 20 ng/ml antibody [3]: 0.048
ELISA absorbance at 0 ng/ml antibody (blank) [4]: 0.041
ELISA absorbance at 0.8 ng/ml antibody [4]: 0.165
ELISA absorbance at 4 ng/ml antibody [4]: 0.63
ELISA absorbance at 20 ng/ml antibody [4]: 1.62
ELISA absorbance at 0 ng/ml antibody (blank) [5]: 0.04
ELISA absorbance at 0.8 ng/ml antibody [5]: 0.04
ELISA absorbance at 4 ng/ml antibody [5]: 0.052
ELISA absorbance at 20 ng/ml antibody [5]: 0.118
Kd [6]: 203 nM
koff [6]: 0.0539 s⁻¹
kon [6]: 266000 M⁻¹ s⁻¹
ELISA absorbance at 0 ng/ml antibody (blank) [7]: 0.042
ELISA absorbance at 0.8 ng/ml antibody [7]: 0.174
ELISA absorbance at 4 ng/ml antibody [7]: 0.671
ELISA absorbance at 20 ng/ml antibody [7]: 1.61
ELISA absorbance at 0 ng/ml antibody (blank) [8]: 0.043
ELISA absorbance at 0.8 ng/ml antibody [8]: 0.041
ELISA absorbance at 4 ng/ml antibody [8]: 0.042
ELISA absorbance at 20 ng/ml antibody [8]: 0.043
ELISA absorbance at 0 ng/ml antibody (blank) [9]: 0.043
ELISA absorbance at 0.8 ng/ml antibody [9]: 0.133
ELISA absorbance at 4 ng/ml antibody [9]: 0.534
ELISA absorbance at 20 ng/ml antibody [9]: 1.52
ELISA absorbance at 0 ng/ml antibody (blank) [10]: 0.042
ELISA absorbance at 0.8 ng/ml antibody [10]: 0.171
ELISA absorbance at 4 ng/ml antibody [10]: 0.659
ELISA absorbance at 20 ng/ml antibody [10]: 1.61
ELISA absorbance at 0 ng/ml antibody (blank) [11]: 0.039
ELISA absorbance at 0.8 ng/ml antibody [11]: 0.165
ELISA absorbance at 4 ng/ml antibody [11]: 0.651
ELISA absorbance at 20 ng/ml antibody [11]: 1.56
Substance: R5 monoclonal antibody

From patent publication US20220135656A1
